Literature values, collected in PMC8553002 (Journal of Mass Spectrometry and Advances in the Clinical …, 2020).

Details: insulin degraded by the liver, to a minor extent, kidneys

Insulin: hormone released with C-peptide from proinsulin in equimolar amounts
half-life: 3 to 5 min
